We go through three substances from paper PMC7116145.

Test [1] concerns the target CPTX-HIS, purified recombinant (UniProt P23435). The experiment in a line: SEC-MALS. (In general: SEC sorts molecules by how far they enter the pores of the column.)
Test [2] concerns the target NP1PTX fused to the C-terminus of a three-stranded GCN4 coiled coil (UniProt Q15818). As to the kind of experiment: SEC-MALS.
Test [3] concerns the target CPTX, biotinylated on a C-terminal Avitag (immobilised in SPR) (UniProt P23435). As to the kind of experiment: SPR. In general terms: Surface plasmon resonance follows binding to a sensor surface in real time, without labels.

human β-neurexin-1 LNS6 domain including spliced sequence #4, sequence (P58400 86-295): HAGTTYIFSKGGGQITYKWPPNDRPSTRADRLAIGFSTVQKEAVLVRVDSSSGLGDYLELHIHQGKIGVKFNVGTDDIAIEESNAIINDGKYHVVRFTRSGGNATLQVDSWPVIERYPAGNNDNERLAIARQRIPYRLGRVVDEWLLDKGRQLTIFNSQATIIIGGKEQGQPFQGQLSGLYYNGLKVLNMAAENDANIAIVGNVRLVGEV

What is called stoichiometry N is the number of molecules, sites or subunits per partner or assembly. As for “CPTX-HIS, purified recombinant (from UniProt P23435 22-53; Q15818 224-431) (designed binder)”, in test [1], the stoichiometry N was found to be 6. “NP1PTX fused to the C-terminus of a three-stranded GCN4 coiled coil (from UniProt Q15818 224-431)”: in test [2], the stoichiometry N turned out to be 3. Broadly, the Kd is the free concentration of one partner at which half of the binding sites on the other are occupied at equilibrium, for simple one-to-one binding. In the case of “human β-neurexin-1 LNS6 domain including spliced sequence #4 (from UniProt P58400 86-295) (domain or fragment)”, in test [3], the Kd stood at 4.9 nM.
